Results reported in IntAct's records for PubMed 31175292.

B1: Signal transducer and activator of transcription 5B (Homo sapiens), P51692 (parent)
chain: MAVWIQAQQLQGEALHQMQALYGQHFPIEVRHYLSQWIESQAWDSVDLDNPQENIKATQLLEGLVQELQKKAEHQVGEDGFLLKIKLGHYATQLQNTYDRCPMELVRCIRHILYNEQRLVREANNGSSPAGSLADAMSQKHLQINQTFEELRLVTQDTENELKKLQQTQEYFIIQYQESLRIQAQFGPLAQLSPQERLSRETALQQKQVSLEAWLQREAQTLQQYRVELAEKHQKTLQLLRKQQTIILDDELIQWKRRQQLAGNGGPPEGSLDVLQSWCEKLAEIIWQNRQQIRRAEHLCQQLPIPGPVEEMLAEVNATITDIISALVTSTFIIEKQPPQVLKTQTKFAATVRLLVGGKLNVHMNPPQVKATIISEQQAKSLLKNENTRNDYSGEILNNCCVMEYHQATGTLSAHFRNMSLKRIKRSDRRGAESVTEEKFTILFESQFSVGGNELVFQVKTLSLPVVVIVHGSQDNNATATVLWDNAFAEPGRVPFAVPDKVLWPQLCEALNMKFKAEVQSNRGLTKENLVFLAQKLFNNSSSHLEDYSGLSVSWSQFNRENLPGRNYTFWQWFDGVMEVLKKHLKPHWNDGAILGFVNKQQAHDLLINKPDGTFLLRFSDSEIGGITIAWKFDSQERMFWNLMPFTTRDFSIRSLADRLGDLNYLIYVFPDRPKDEVYSKYYTPVPCESATAKAVDGYVKPQIKQVVPEFVNASADAGGGSATYMDQAPSPAVCPQAHYNMYPQNPDSVLDTDGDFDLEDTMDVARRVEELLGRPMDSQWIPHAQS

Variants of: B1
Conditions: with abl1_human ABL1, P00519
Sequence of abl1_human ABL1, P00519 (P00519 whole entry): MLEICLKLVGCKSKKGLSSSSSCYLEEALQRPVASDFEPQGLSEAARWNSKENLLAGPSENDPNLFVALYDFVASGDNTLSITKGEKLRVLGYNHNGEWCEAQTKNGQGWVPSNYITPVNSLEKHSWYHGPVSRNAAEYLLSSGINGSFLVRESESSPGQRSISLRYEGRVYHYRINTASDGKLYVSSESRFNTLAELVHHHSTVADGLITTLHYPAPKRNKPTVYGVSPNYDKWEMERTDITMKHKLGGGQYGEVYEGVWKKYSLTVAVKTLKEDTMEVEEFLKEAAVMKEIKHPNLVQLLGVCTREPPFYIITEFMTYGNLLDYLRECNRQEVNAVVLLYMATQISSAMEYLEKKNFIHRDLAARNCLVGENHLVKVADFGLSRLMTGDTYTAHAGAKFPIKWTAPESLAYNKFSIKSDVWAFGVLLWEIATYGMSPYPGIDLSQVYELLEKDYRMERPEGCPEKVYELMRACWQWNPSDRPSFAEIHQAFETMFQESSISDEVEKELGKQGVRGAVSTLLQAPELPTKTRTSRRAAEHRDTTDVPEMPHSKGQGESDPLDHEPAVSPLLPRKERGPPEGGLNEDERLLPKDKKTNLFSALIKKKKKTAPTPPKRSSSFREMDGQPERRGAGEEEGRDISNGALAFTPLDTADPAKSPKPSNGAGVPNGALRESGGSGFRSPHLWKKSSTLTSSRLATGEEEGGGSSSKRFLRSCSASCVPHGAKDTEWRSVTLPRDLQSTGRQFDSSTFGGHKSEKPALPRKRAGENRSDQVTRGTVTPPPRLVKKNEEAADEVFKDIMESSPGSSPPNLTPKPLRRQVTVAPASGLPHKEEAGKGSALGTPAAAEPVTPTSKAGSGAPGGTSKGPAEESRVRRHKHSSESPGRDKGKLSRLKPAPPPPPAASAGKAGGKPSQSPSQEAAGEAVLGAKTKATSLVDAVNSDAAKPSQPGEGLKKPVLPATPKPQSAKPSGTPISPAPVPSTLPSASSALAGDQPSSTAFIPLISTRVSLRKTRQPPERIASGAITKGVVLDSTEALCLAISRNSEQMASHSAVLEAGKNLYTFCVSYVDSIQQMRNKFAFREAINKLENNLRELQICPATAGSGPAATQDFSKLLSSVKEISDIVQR
For N642H, the “effect of a mutation on the interaction” value was “with no effect”.
